Measured values published in patent publication US20240209086A1 (PETMEDIX, published 2024).
Substitutions are numbered along the chain they refer to.

T1: canine CD20 on cells (HEK293, MDCK II, CLBL-1 or native B cells) (canine, UniProt Q3C2E2 1-297)
T1 chain: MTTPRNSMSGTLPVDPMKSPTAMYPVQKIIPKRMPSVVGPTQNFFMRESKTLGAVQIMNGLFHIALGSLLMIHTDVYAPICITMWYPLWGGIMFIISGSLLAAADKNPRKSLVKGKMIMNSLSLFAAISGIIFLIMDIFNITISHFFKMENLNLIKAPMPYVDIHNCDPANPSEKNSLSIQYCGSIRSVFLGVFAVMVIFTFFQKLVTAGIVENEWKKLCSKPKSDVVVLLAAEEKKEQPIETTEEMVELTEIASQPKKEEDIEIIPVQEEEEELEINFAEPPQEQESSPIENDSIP

B1: PMX187 in bispecific format (canine CD3 arm PMX187 x Rituximab arm, human IgG4PE knob-in-hole) (bispecific antibody)
heavy 1: EVQLVESGGDLVKPGGSLRLSCVASGFTFSSYHMSWVRQAPGKGLQWVASINSGGSRTSYVDAVKGRFTISRDNAKNTLYLQMNSLRAEDTAVYYCASGRTGPKLGLGDYGMDSWGHGTSLFVSSASTKGPSVFPLAPCSRSTSESTAALGCLVKDYFPEPVTVSWNSGALTSGVHTFPAVLQSSGLYSLSSVVTVPSSSLGTKTYTCNVDHKPSNTKVDKRVESKYGPPCPPCPAPEFEGGPSVFLFPPKPKDTLMISRTPEVTCVVVDVSQEDPEVQFNWYVDGVEVHNAKTKPREEQFNSTYRVVSVLTVLHQDWLNGKEYKCKVSNKGLPSSIEKTISKAKGQPREPQVYTLPPSQCEMTKNQVSLSCAVKGFYPSDIAVEWESNGQPENNYKTTPPVLDSDGSFFLVSRLTVDKSRWQEGNVFSCSVMHEALHNRFTQKSLSLSLGK
light 1: SYVLTQLPSKNVTLKQPAHITCGGDNIGSKSVHWYQQKLGQAPVLIIYYDSSRPTGIPERFSGANSGNTATLTISGALAEDEADYYCQVWDSSAKAWVFGAGTQLTVLRTVAAPSVFIFPPSDEQLKSGTASVVCLLNNFYPREAKVQWKVDNALQSGNSQESVTEQDSKDSTYSLSSTLTLSKADYEKHKVYACEVTHQGLSSPVTKSFNRGEC
heavy 2: not shown
light 2: QIVLSQSPAILSASPGEKVTMTCRASSSVSYIHWFQQKPGSSPKPWIYATSNLASGVPVRFSGSGSGTSYSLTISRVEAEDAATYYCQQWTSNPPTFGGGTKLEIKRTVAAPSVFIFPPSDEQLKSGTASVVCLLNNFYPREAKVQWKVDNALQSGNSQESVTEQDSKDSTYSLSSTLTLSKADYEKHKVYACEVTHQGLSSPVTKSFNRGEC
B2: PMX188 in bispecific format (canine CD3 arm PMX188 x Rituximab arm, human IgG4PE knob-in-hole) (bispecific antibody)
heavy 1: B1 heavy 1 with N77K
light 1: B1 light 1 with V44I, A101E
heavy 2: not shown
light 2: B1 light 2
B3: PMX172VH/PMX229VH/PMX172VL (bispecific antibody, V domains shown)
VH 1: EVQLVESGGDLVKPGGSLRLSCVASGFTFSSYHMSWVRQAPGKGLQWVAYSNSGGSRTSYADAVKGRFTISRDNAKNTLYLQMNSLRAEDTAVYYCASEGGGGRYGYKDYGMDYWGHGTSLFVSS
VH 2: EVQLVESGGDLVKPGGSLRLSCVASGITFSRYHMSWVRQAPGKGLQWVAFINTGRSSTNYADAVAGRFTISRDNAKNTLYLQMNGLTVEDTAVYYCSTLDYWGQGTLVTVSS
VL: SYVLTQLPSKNVTLKQPAHITCGGDNIGSKSVHWYQQKLGQAPVLIIYYDSSRPTGIPERFSGANSGNTATLTISGALAEDEADYYCQVWDSSAKAWVFGEGTQLTVL
B4: PMX172VH/PMX262VH/PMX172VL (bispecific antibody, V domains shown)
VH 1: B3 VH 1
VH 2: EVQLVESGGDLVKPGGSLRLSCVASGITFSRYYMNWVRQAPGKGLQWVAYINSGGSPTTYADAVKGRFTISRDNAKNTLYLQMNSLRAEDTAVYYCTSFDYWGQGTLVTVSS
VL: B3 VL
B5: PMX172VH/PMX240VH/PMX172VL (bispecific antibody, V domains shown)
VH 1: B3 VH 1
VH 2: B4 VH 2 with I27L, Y33H, N35S, Y50F, G55R, P57D, S98T
VL: B3 VL
B6: PMX172VH/PMX264VH/PMX172VL (bispecific antibody, V domains shown)
VH 1: B3 VH 1
VH 2: B3 VH 2 with I27F, S56M, A65K, G85S, T87R, V88A, S97T, T98S
VL: B3 VL
B7: PMX172VH/PMX230VH/PMX172VL (bispecific antibody, V domains shown)
VH 1: B3 VH 1
VH 2: B4 VH 2 with Q3H, S30N, A40T, N52D
VL: B3 VL
B8: PMX172VH/PMX233VH/PMX172VL (bispecific antibody, V domains shown)
VH 1: B3 VH 1
VH 2: B4 VH 2 with V2M, I27F, N52D, T59N, T91A, V93I, S98T, Y101F
VL: B3 VL
B9: PMX172VH/PMX236VH/PMX172VL (bispecific antibody, V domains shown)
VH 1: B3 VH 1
VH 2: B4 VH 2 with I27L, N52D, T59N, T97S
VL: B3 VL
B10: PMX172VH/PMX234VH/PMX172VL (bispecific antibody, V domains shown)
VH 1: B3 VH 1
VH 2: B4 VH 2 with V2L, I27F, M34L, Y50F, N52T, P57S, T59N, Y101S
VL: B3 VL
B11: PMX172VH/PMX235VH/PMX172VL (bispecific antibody, V domains shown)
VH 1: B3 VH 1
VH 2: B4 VH 2 with S53T, G55E, P57S, T59I, A61S, S98T, F99L, D100E
VL: B3 VL
B12: PMX172VH/PMX268VH/PMX172VL (bispecific antibody, V domains shown)
VH 1: B3 VH 1
VH 2: EVQLVESGGDLMKPGGSLRLSCVASGITFSGYHMSWVRQAPGKGLQWVAFINSGRKNTAYADAVKGRFTISRDNAKNTLYLQMNSLRAEDTAIYYCTTLEFWGQGTLVTVSS
VL: B3 VL
B13: PMX172VH/PMX263VH/PMX172VL (bispecific antibody, V domains shown)
VH 1: B3 VH 1
VH 2: B4 VH 2 with I27F, P57S, T59S, E89D
VL: B3 VL
B14: PMX172VH/PMX239VH/PMX172VL (bispecific antibody, V domains shown)
VH 1: B3 VH 1
VH 2: B4 VH 2 with I27F, Y50F, N52T, P57S, T59S, A61G
VL: B3 VL
B15: PMX172VH/PMX273VH/PMX172VL (bispecific antibody, V domains shown)
VH 1: B3 VH 1
VH 2: B4 VH 2 with V2M, I27F, Y33H, N35S, N52D, G54D, T59N, S98T, F99Y, Y101Q
VL: B3 VL
B16: PMX172VH/PMX272VH/PMX172VL (bispecific antibody, V domains shown)
VH 1: B3 VH 1
VH 2: B4 VH 2 with I27F, N52D, G54D, P57S, T59S, E89D
VL: B3 VL

target: T2, canine CD3εδ-Fc (heterodimer of canine CD3ε-hIgG4PE-knob and canine CD3δ-hIgG4PE-hole) (canine); assay: SPR (Biacore 8K), CD3εδ-Fc amine-coupled to CM5 chip, multi-cycle kinetics, antibody 600-7.4 nM
T2 construct: also called CD3εδ-Fc fusion protein; copies: 1 + 1
T2 sequence (chain, as listed by the source mutant limits assumed): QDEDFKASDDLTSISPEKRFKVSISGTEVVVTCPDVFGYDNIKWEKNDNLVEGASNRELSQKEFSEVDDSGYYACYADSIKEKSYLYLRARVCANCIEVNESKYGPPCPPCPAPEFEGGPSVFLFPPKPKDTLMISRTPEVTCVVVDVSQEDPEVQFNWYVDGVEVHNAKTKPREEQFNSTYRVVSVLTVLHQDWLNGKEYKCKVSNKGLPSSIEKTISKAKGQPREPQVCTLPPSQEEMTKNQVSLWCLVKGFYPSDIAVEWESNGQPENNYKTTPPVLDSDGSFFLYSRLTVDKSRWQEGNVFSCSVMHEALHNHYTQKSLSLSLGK
Protocol: Binding affinity of shortlisted candidates, described in Example 3, were assessed using Biacore 8K (Cytiva). Briefly, a CM5 Sensor Chip (Cytiva) was docked onto a Biacore 8K, equilibrated for 30′ at RT and then Running Buffer (10 mM HEPES pH6 150 mM NaCl 3 mM EDTA and 0.005% Tween20) was applied to the SPR chip surface. Canine CD3εδ-Fc was diluted into 10 mM acetate buffer pH4.5 and immobilised using standard amine coupling reaction. Antibodies dilutions were prepared by diluting the shortlisted candidates from 600 nM to 7.4 nM (5 concentrations with 1:3 dilutions) in running buffer and kinetics was assessed using multi-cycle kinetics method (120 sec association-300 sec dissociation). Kinetics and/or Affinity quantification was performed using Biacore Insight following standard analyses methods.

Row | Kd | Binder
1 | 106 nM | B1
2 | 292 nM | B2

Target: T1, canine CD20 on cells (HEK293, MDCK II, …)
Assay: cell-based or functional assay

Row | Binder | EC50 (nM), bispecific killing (FIG. 15)
3 | B3 | 1.02 nM
4 | B4 | 0.129 nM
5 | B5 | 0.341 nM
6 | B6 | 0.361 nM
7 | B7 | 0.121 nM
8 | B8 | 0.188 nM
9 | B9 | 0.153 nM
10 | B10 | 0.412 nM
11 | B11 | 0.445 nM

Target: T1, canine CD20 on cells (HEK293, MDCK II, …)
Assay: cell-based or functional assay
Remark: another data set of the same source

Row | EC50 (nM), endogenous B cell depletion in PBMC (FIG. 16A) | Binder
12 | 0.764 nM | B12
13 | 0.247 nM | B4
14 | 0.828 nM | B6
15 | 0.183 nM | B7
16 | 0.307 nM | B8
17 | 0.075 nM | B9

target: canine CD3 on canine T cells (canine PBMC) (canine, UniProt P27597 22-202); assay: cell-based or functional assay
Sequence (P27597 22-202 limits assumed, chain 1 of 3): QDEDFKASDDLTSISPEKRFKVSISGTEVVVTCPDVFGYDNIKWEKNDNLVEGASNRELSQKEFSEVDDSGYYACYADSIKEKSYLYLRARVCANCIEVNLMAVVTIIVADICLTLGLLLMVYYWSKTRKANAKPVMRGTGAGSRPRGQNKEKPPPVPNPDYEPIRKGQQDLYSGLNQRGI
Sequence (chain, as listed by the source limits assumed, chain 2 of 3): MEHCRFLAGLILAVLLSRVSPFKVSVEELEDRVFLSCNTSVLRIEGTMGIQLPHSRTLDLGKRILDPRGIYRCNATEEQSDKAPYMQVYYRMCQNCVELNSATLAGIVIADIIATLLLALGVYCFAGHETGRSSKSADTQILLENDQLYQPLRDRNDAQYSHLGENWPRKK
Sequence (chain, as listed by the source limits assumed, chain 3 of 3): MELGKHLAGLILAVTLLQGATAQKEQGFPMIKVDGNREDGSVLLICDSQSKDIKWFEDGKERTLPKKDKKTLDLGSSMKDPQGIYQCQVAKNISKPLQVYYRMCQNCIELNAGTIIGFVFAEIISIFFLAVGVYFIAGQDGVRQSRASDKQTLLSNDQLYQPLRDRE

Row | Binder | EC50 (M) of killing potency, bispecific killing of hCD20+GFP MDCK II cells by canine PBMC
18 | B1 | 1.14e-08 M
19 | B2 | 8.23e-09 M

Target: T1, canine CD20 on cells (HEK293, MDCK II, …)
Assay: cell-based or functional assay
Remark: another data set of the same source

Row | Binder | EC50 (nM), bispecific killing (FIG. 13E)
20 | B13 | 15.7 nM
21 | B14 | 2.59 nM
22 | B6 | 2.88 nM
23 | B15 | 9.63 nM
24 | B16 | 5.87 nM
